Experimental data as given in US20240293465A1.

B1: bovine FXa (activated bovine clotting factor X) (protein)
chain: ANSFLEEVKQGNLERECLEEACSLEEAREVFEDAEQTDEFWSKYKDGDQCEGHPCLNQGHCKDGIGDYTCTCAEGFEGKNCEFSTREICSLDNGGCDQFCREERSEVRCSCAHGYVLGDDSKSCVSTERFPCGKFTQGRSRRWAIHTSEDALDASELEHYDPADLSPTESSLDLLGLNRTEPSAGEDGSQVVRIVGGRDCAEGECPWQALLVNEENEGFCGGTILNEFYVLTAAHCLHQAKRFTVRVGDRNTEQEEGNEMAHEVEMTVKHSRFVKETYDFDIAVLRLKTPIRFRRNVAPACLPEKDWAEATLMTQKTGIVSGFGRTHEKGRLSSTLKMLEVPYVDRSTCKLSSSFTITPNMFCAGYDTQPEDACQGDSGGPHVTRFKDTYFVTGIVSWGEGCARKGKFGVYTKVSNFLKWIDKIMKARAGAAGSRGHSEAPATWTVPPPLPL

Columns and labels:
[1] = biological target: human C3 (UniProt P01024)
[2] = biological target: human C3, P01024
human C3, P01024, sequence (P01024 whole entry, looked up): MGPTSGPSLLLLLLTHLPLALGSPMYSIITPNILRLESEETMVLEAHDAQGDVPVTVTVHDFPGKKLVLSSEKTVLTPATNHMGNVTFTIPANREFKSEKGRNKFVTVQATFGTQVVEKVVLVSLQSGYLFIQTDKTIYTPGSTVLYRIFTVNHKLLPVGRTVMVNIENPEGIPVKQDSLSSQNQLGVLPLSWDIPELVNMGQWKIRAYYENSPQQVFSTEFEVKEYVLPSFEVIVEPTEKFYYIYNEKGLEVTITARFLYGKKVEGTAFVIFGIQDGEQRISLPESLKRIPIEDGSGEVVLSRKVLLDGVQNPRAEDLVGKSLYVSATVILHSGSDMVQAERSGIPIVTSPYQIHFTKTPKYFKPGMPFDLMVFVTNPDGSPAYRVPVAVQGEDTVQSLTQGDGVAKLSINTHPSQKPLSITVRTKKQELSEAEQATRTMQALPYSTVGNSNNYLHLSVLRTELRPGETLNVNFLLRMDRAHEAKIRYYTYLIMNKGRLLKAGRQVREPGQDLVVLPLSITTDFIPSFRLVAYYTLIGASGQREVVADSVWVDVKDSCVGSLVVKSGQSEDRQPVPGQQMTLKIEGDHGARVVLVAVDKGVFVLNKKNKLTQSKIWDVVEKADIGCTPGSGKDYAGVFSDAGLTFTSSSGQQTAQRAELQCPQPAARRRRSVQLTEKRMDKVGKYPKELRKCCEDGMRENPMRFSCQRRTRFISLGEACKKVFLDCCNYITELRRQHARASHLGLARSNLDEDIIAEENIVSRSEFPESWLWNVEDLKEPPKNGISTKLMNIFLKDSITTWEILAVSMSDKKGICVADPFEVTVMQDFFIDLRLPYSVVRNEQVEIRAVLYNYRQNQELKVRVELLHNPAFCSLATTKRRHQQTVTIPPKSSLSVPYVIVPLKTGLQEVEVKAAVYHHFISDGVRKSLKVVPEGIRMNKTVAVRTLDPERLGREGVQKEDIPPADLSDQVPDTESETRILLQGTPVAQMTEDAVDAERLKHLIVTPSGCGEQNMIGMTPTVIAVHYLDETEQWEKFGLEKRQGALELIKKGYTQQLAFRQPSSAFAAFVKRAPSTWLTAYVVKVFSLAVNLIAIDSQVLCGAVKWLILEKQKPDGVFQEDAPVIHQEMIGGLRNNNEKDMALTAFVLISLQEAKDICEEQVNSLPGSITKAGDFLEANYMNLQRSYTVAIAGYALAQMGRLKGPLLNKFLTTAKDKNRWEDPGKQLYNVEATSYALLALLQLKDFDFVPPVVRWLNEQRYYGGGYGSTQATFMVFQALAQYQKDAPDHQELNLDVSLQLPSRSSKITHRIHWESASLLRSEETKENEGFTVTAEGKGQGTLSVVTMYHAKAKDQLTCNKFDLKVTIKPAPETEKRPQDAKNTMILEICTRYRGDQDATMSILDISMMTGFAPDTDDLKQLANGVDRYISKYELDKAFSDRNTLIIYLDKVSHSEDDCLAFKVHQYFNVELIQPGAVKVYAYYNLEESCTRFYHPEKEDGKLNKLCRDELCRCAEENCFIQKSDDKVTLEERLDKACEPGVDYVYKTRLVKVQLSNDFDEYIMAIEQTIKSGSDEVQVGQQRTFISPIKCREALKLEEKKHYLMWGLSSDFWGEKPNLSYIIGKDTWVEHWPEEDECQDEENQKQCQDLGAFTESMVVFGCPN

Molecule | cleavage of the C3 alpha chain to the a' chain (Western blot) [1] | cleavage of the C3 alpha chain to the a' chain (Western blot) [2]
human FXa (activated form of human clotting factor X) | can cleave C3 in vitro in the absence of any complement proteases | –
human FCXIa (activated form of human clotting factor XI) | can cleave C3 in vitro in the absence of any complement proteases | –
B1 | – | can cleave C3 in vitro in the absence of any complement proteases
